This sample holds only a part of the variants without activity.
Assays:
biotinyl-Phe-oxazolone = experiment: self-aminoacylation, catalytic enhancement (BFO) (fold over background); higher = more active; k-Seq, kA / k0A0; sequences stand for … in GGGAAUGGAUCCACAUCUACGAAUUC…UUCACUGCAGACUUGACGAAGCUG
In short: (§1)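 Each biotinyl-aminoacyl-oxazolone, at 2–1250 μM, was incubated with mutagenized RNA pools (0.43 μM) carrying a 21-nt variable region. The 50 μL reactions contained HEPES/NaCl/KCl/MgCl2/CaCl2 buffer with 5% acetonitrile at pH 6.9–7.0 and ran for 90 minutes at room temperature. After streptavidin capture, RNA was measured by qPCR in triplicate and by Illumina sequencing, and catalytic enhancement was calculated as median kA over the uncatalyzed rate from a pseudo-first-order fit of per-sequence fraction reacted.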

biotinyl-Ile-oxazolone = experiment: self-aminoacylation, catalytic enhancement (BIO) (fold over background); higher = more active; k-Seq, kA / k0A0; sequences stand for … in GGGAAUGGAUCCACAUCUACGAAUUC…UUCACUGCAGACUUGACGAAGCUG
In short: as §1

biotinyl-Met-oxazolone = experiment: self-aminoacylation, catalytic enhancement (BMO) (fold over background); higher = more active; k-Seq, kA / k0A0; sequences stand for … in GGGAAUGGAUCCACAUCUACGAAUUC…UUCACUGCAGACUUGACGAAGCUG
In short: as §1

biotinyl-Val-oxazolone = experiment: self-aminoacylation, catalytic enhancement (BVO) (fold over background); higher = more active; k-Seq, kA / k0A0; sequences stand for … in GGGAAUGGAUCCACAUCUACGAAUUC…UUCACUGCAGACUUGACGAAGCUG
In short: as §1

biotinyl-Leu-oxazolone = experiment: self-aminoacylation, catalytic enhancement (BLO) (fold over background); higher = more active; k-Seq, kA / k0A0; sequences stand for … in GGGAAUGGAUCCACAUCUACGAAUUC…UUCACUGCAGACUUGACGAAGCUG
In short: as §1

biotinyl-Trp-oxazolone = experiment: self-aminoacylation, catalytic enhancement (BWO) (fold over background); higher = more active; k-Seq, kA / k0A0; sequences stand for … in GGGAAUGGAUCCACAUCUACGAAUUC…UUCACUGCAGACUUGACGAAGCUG
In short: as §1

Row | Sequence | self-aminoacylation (biotinyl-Phe-oxazolone) | self-aminoacylation (biotinyl-Ile-oxazolone) | self-aminoacylation (biotinyl-Met-oxazolone) | self-aminoacylation (biotinyl-Val-oxazolone) | self-aminoacylation (biotinyl-Leu-oxazolone) | self-aminoacylation (biotinyl-Trp-oxazolone)
1 | AAGUUUUCUAAUAGUGGCAAG [Fam3.1 aminoacylation ribozyme variant] | 0.75 | 0.856 | 0.758 | 0.662 | 0.804 | 0.658
2 | AAGUUUUCUAAUCGUCGCAAG [Fam3.1 aminoacylation ribozyme variant] | 2.56 | 1.75 | 1.68 | 1.69 | 1.79 | 1.65
3 | AAUAACCUGGUCAUCGAGUGA [Fam2.1 aminoacylation ribozyme variant] | 9.51 | 3.67 | 5.9 | 3.55 | 5.79 | 7.36
4 | AAUACCAUGGUCAUCGAGUGA [Fam2.1 aminoacylation ribozyme variant] | 16.2 | 3.19 | 6.12 | 2.89 | 6.22 | 7.7
5 | AAUACCCUGAUCAUCGAGUGA [Fam2.1 aminoacylation ribozyme variant] | 18.6 | 2.79 | 6.32 | 3.21 | 6.22 | 7.59
6 | AAUACCCUGGUCAUCGGGUGA [Fam2.1 aminoacylation ribozyme variant] | 77.3 | 7.82 | 12.1 | 7.46 | 11.8 | 15.9
7 | AAUACCCUGGUUAUCGAGUGA [Fam2.1 aminoacylation ribozyme variant] | 30.8 | 3.37 | 6.97 | 3.59 | 7.89 | 9.84
8 | AAUACCCUUGUCAUCGAGUGA [Fam2.1 aminoacylation ribozyme variant] | 5.23 | 2.42 | 4.58 | 2.43 | 4.72 | 5.93
9 | AAUAUCCUGGUCAUCGAGUGA [Fam2.1 aminoacylation ribozyme variant] | 26.2 | 4.6 | 8.66 | 4.34 | 8.92 | 10.1
10 | AAUAUUGCUAAUAGUCGCAAG [Fam3.1 aminoacylation ribozyme variant] | 2.4 | 1.86 | 1.68 | 1.76 | 1.7 | 1.95
11 | AAUCACCAAGGUCAUCGGGUG [Fam2.2 aminoacylation ribozyme variant] | 54.3 | 4.92 | 6.79 | 5.67 | 10.7 | 8.66
12 | AAUCACCUACGUCAUCGGGUG [Fam2.2 aminoacylation ribozyme variant] | 53 | 4.41 | 6.56 | 3.79 | 6.01 | 7.27
13 | AAUCACCUAGGUCAUCGAGUG [Fam2.2 aminoacylation ribozyme variant] | 7.56 | 3.52 | 3.92 | 2.86 | 4.65 | 3.26
14 | AAUCACCUAGGUCAUCGCGUG [Fam2.2 aminoacylation ribozyme variant] | 70.6 | 6.41 | 11.3 | 7.32 | 12.1 | 10.4
15 | AAUCACCUAGGUCAUCGGGCG [Fam2.2 aminoacylation ribozyme variant] | 7.85 | 3.35 | 4.05 | 2.77 | 4.1 | 3.94
16 | AAUCACCUAGGUCAUUGGGUG [Fam2.2 aminoacylation ribozyme variant] | 13.1 | 2.94 | 2.74 | 2.65 | 3.6 | 4.15
17 | AAUCACCUAGGUCCUCGGGUG [Fam2.2 aminoacylation ribozyme variant] | 19.7 | 3.74 | 3.73 | 3.29 | 5.07 | 5.34
18 | AAUCCCCUAGGUCAUCGGGUG [Fam2.2 aminoacylation ribozyme variant] | 104 | 7.49 | 13.5 | 8.17 | 16.3 | 11.8
19 | AAUUCCCUGGUCAUCGAGUGA [Fam2.1 aminoacylation ribozyme variant] | 41.5 | 5.6 | 10.1 | 6.09 | 10.8 | 13
20 | AAUUCUGCUAAUAGUCGCAAG [Fam3.1 aminoacylation ribozyme variant] | 12.7 | 1.88 | 1.81 | 1.56 | 1.61 | 4.46
21 | AAUUUUGAUAAUAGUCGCAAG [Fam3.1 aminoacylation ribozyme variant] | 2.09 | 1.7 | 1.66 | 1.39 | 1.64 | 1.37
22 | AAUUUUGCUAAUAGGCGCAAG [Fam3.1 aminoacylation ribozyme variant] | 1.5 | 1.57 | 1.43 | 1.28 | 1.12 | 1.71
23 | AAUUUUGCUAAUAGUAGCAAG [Fam3.1 aminoacylation ribozyme variant] | 1.11 | 1.41 | 1.31 | 1.37 | 1.75 | 0.996
24 | AAUUUUGCUAAUAGUCGCAAC [Fam3.1 aminoacylation ribozyme variant] | 2.23 | 1.64 | 1.41 | 1.8 | 1.44 | 1.95
25 | AAUUUUGCUAAUAGUCGCGAG [Fam3.1 aminoacylation ribozyme variant] | 8.52 | 2.28 | 1.99 | 1.51 | 1.7 | 2.02

Source: the supplement of paper PMC9233669
